B1: MNAT1 (parent)
chain: SLREYNDFLEEVEEIVFNLTNNVD
B2: SPOPL (parent)
chain: AKREETKAMESQRAYRFVQGKDWG

Variants of: B1
Experiment: protein stability index of a GFP-peptide fusion (GPS, HEK-293T) (PSI 1-6); higher = more stable
Settings: c terminus: a fixed tail appended
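Note: lentivirally expressed fusions sorted by FACS into six bins by GFP to DsRed ratio, PSI derived from sequencing read proportions per bin multiplied by bin number.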

Protein stability index, by site and new letter:
V12: G 4.16 | Y 3.04 | Q 4.08 | H 3.48 | I 2.13 | P 3.91 | D 4.97 | K 4.72 | F 1.86
F8: T 4.55 | D 4.87 | A 3.06 | Y 3.6 | L 3.43 | W 2.53 | Q 4.55 | I 2.57 | V 3.63 | G 4.11 | N 4.84 | M 3.51 | H 4.72 | P 4.78
N18: F 2.22 | G 2.38 | T 2.55 | W 2.52 | V 2.32 | E 2.16 | A 1.84 | Q 1.73 | R 1.6 | S 2.16
N6: H 1.8 | I 2.63 | C 1.78 | T 2.27 | V 1.68 | Y 1.87 | A 2.82 | R 2.23 | M 1.76 | F 2.77 | G 3.17
E13: R 1.87 | K 2.69 | G 2.43 | F 2.27 | Q 1.93 | W 2.52 | T 1.58 | N 2.37 | L 2.5 | Y 1.63 | V 2.87 | I 2.58 | H 2.15 | D 2.87
F17: S 3.11 | G 3.4 | V 2.82 | A 2.46 | K 2.38 | L 2.19 | H 3.15 | C 2.88 | M 2.57 | P 4 | E 3.34 | T 3.16
Y5: M 1.73 | N 4.14 | R 4.19 | T 4.08 | D 2.23 | W 2.56 | C 3.11 | F 1.58 | L 2.16 | H 3.81 | I 2.61 | V 2.05 | Q 4.19 | S 4.29 | G 3.91
S1: H 2.24 | N 3.35 | R 2.21 | V 2.1 | T 1.85 | F 2.67 | Y 1.69 | C 1.72 | D 2.62 | K 1.94 | I 2.23 | A 2.1
L2: A 2.58 | R 3.65 | H 3.09 | V 2.33 | Y 2.36 | S 2.71 | P 3.72 | I 2.31 | M 2.13 | C 2.67 | N 2.86 | T 3.01
V23: F 2.71 | I 1.98 | T 2.5 | S 3.05 | K 2.08 | A 2.69 | H 2.38 | Y 1.8 | E 2.82 | Q 2.21 | G 2.73 | L 1.64 | C 2.47
T20: N 2.56 | E 2.51 | R 2.46 | C 2.31 | Y 1.5 | L 2.75 | W 2 | V 1.33 | D 3.91 | F 1.5 | S 3.05
E4: D 2.19 | M 2.26 | N 2.04 | S 2.31 | K 2.75 | H 2.66 | P 2.98 | I 1.69 | F 2.34
E11: S 1.73 | H 2.07 | I 1.89 | R 2.17 | C 2.33 | T 1.97 | D 2.51 | W 2.46
R3: K 2.06 | W 1.62 | F 2.6 | A 2.58 | H 2.71 | G 2.78 | S 2.55 | T 1.83 | N 2.18 | P 3.52
D7: S 2.05 | A 2.43 | K 1.58 | T 1.47 | E 1.91 | Q 1.83 | C 2.27 | F 2.32 | R 1.63
V16: D 4.87 | P 4.18 | Q 3.99 | L 1.14 | W 2.83 | F 1.75 | A 3.36 | S 4.58 | N 4.53 | H 3.86 | Y 2.63 | G 3.86 | K 2.84
E10: S 2.41 | T 2.01 | N 1.55 | I 1.3 | A 1.58 | F 2.97 | R 1.86 | G 2.72 | D 1.95 | M 1.4 | Y 2.15 | W 1.95
I15: K 4.08 | P 4.71 | D 4.82 | R 3.84 | M 2.51 | W 2.16 | E 4.66 | V 3.31 | S 3.89 | H 3.9 | A 3.78 | C 3.63
N21: M 2.48 | C 1.48 | R 1.95 | Q 3.08 | D 3 | K 1.45 | G 2.58 | S 1.68 | T 2.42 | A 1.42 | Y 2.4
E14: Q 2.46 | W 1.75 | S 2.26 | T 1.87 | R 2.15 | P 3.38 | F 2.82 | C 2.24 | M 2.22 | L 2.12 | G 2.34 | N 2.11 | H 2.19
L9: T 4.07 | P 4.61 | H 4.22 | C 3.36 | R 3.83 | Y 3.59 | G 3.98 | E 4.32 | D 4.5 | Q 4.07 | K 3.98 | N 4.6 | W 1.79 | M 2.76 | S 4.82
N22: W 2.97 | S 1.78 | M 1.44 | A 2.69 | V 1.9 | K 2.64 | I 2.25 | E 2.38 | H 2.15 | D 1.98 | G 2.96 | L 1.16 | P 2.25 | Q 1.84
L19: P 4.05 | D 4.43 | G 4.19 | T 3.6 | R 3.34 | A 3.2 | H 4.43 | Y 3.06 | N 3.76 | S 4.18 | K 4.26 | E 4.55 | W 1.63
D24: K 1.81 | E 2.47 | C 1.5 | H 1.88 | I 1.85 | W 1.54 | F 1.87 | A 1.79 | G 2.61 | Y 1.9 | P 2 | N 1.31

Variants of: B2
Experiment: as above
Settings: c terminus: a fixed tail appended

Protein stability index: each site, then its substitutions
W23: L 4.21 | H 4.77 | Q 4.8 | S 4.91 | F 3.53 | V 4.72 | N 3.65 | G 4.88 | Y 4.05 | T 4.86 | I 4.18 | A 4.8 | K 4.87 | R 4.49 | D 4.4 | C 4.9 | E 5.14 | P 4.79 | M 4.86
G24: T 2.96 | Q 4.07 | Y 2.41 | C 2.18 | E 3.24 | L 2.64 | M 2.54 | S 3.49 | K 4.32 | F 1.81 | I 3 | P 2.45 | R 3.73 | D 4.16 | N 3.63 | W 2.27 | V 2.91 | H 3.39 | A 3.44
D22: R 4.09 | S 3.42 | Q 3.18 | Y 2.76 | M 2.95 | L 2.94 | T 3.86 | W 2.55 | K 3.77 | V 3.82 | P 3.18 | N 2.74

— the supplement of paper PMC10567573
